The results in this text go back to PMC8549803, “Dithiolane quartets: thiol-mediated uptake enables cytosolic delivery in deep tissue” (Chemical Science, 2021).

One data set has as its system HGM cells. In words: 2D HC-CAPA (chloroalkane penetration assay), cytosolic delivery in 2D cell culture. Conditions: 4 h; for CP50, half maximal cell-penetration concentration: HGM cells (HeLa stably expressing HaloTag-GFP-Mito), complexes 0 to max 20 μM in Leibovitz's, 37 °C, then HRO 2 5 μM 15 min, high-content fluorescence imaging, Hill analysis of DRCs, duplicates; for Uptake activity in 2D CAPA, in words: HGM cells, up to 20 μM. The class given is cell-based. The method, then:
Cytosolic delivery into 2D cell culture was determined first using the chloroalkane penetration assay (CAPA).[55–57] This assay has been introduced recently by Kritzer et al. as a reliable tool to quantitatively measure cytosolic delivery.[55–57] The CAPA method operates with HGM cells, i.e. HeLa cells that stably express a fusion protein of HaloTag and GFP on mitochondria (Fig. 1c). Chloroalkylated transporters that reach the cytosol will react with these HaloTags, while all unused HaloTags will react with subsequently added chloroalkylated TAMRA 2. The result is decreasing TAMRA fluorescence with increasing uptake of transporters. Automated high-content high-throughput imaging has been introduced to measure TAMRA fluorescence only inside of healthy cells and generate high-precision dose–response curves (DRCs, Fig. 3) while simultaneously reporting on cell viability.[50] The uptake efficiency is reported as CP50 value, that is the transporter concentration needed to inhibit HaloTag labeling with 2 by 50%, determined by the Hill analysis of DRCs. In conventional 2D cell culture, complex 1 afforded CP50 = 3.6 ± 0.3 μM (Fig. 2, 3a, filled circles, Table 1).
Complex 22 was similarly prepared using 6 µL of peptide 12 (10 mM in DMSO, 3 […]
Complex 23 was similarly prepared using 4 µL of peptide 13 (10 mM in DMSO, 2 […]
Complex 24 was similarly prepared using 2 µL each of peptides 12 and 13 (10 mM in DMSO, 1 equivalent each).
Complex 25 was similarly prepared using 4 µL of peptide 14 (10 mM in DMSO, 2 […]
Complex 26 was similarly prepared using 2 µL each of peptides 13 and 14 (10 mM in […]
HeLa cells stably expressing the HaloTag-GFP-Mito fusion protein (HGM): The cells were originally designed by the Chenoweth lab as described in ref. S10. They were cultured using the described procedure in ref. S4.
3.2.1 General HC-CAPA protocol
As in ref. S11, HGM cells were seeded at 8 ×10^4 cells/mL in FluoroBrite DMEM + 10% FBS on μ-Plates 96-well ibiTreat sterile and kept at 37 °C with 5% CO2 overnight. Next day, cells were washed with PBS ([…]) and the media were exchanged to Leibovitz’s (4 × 150 μL/well) using a plate washer, keeping a final volume of 135 μL/well. Then, serial dilutions of the corresponding complexes 1, 15-26 in PBS were prepared in a 96-well V-bottom plate and added to the μ-Plate containing the cells (15 μL/well, 10x final concentration in PBS) to reach a final volume of 150 μL/well (0 to maximum 20 μM). Cells were incubated for 4 h at […]
37 °C with 5% CO2. After this, cells were washed again and HRO 2 was added (15 μL/well, 50 μM in PBS) to reach a final volume of 150 μL/well (5 μM), except for the control wells, where only PBS was added (15 μL/well). After 15 min of incubation at 37 °C with 5% CO 2, the plate was washed again. Then, Hoechst 33342 was added (15 μL/well, 170 μM in PBS) to reach a final volume of 150 μL/well (17 μM). After 15 min of incubation at 37 °C with 5% CO2, the plate was washed one last time and the cells were kept in clean Leibovitz’s media.
During imaging, samples were kept at 37 °C with 5% CO2. A total of 16 images/well at 40x were recorded, using three channels: blue (excitation filter: 37 7/50 nm, emission filter: 477/60 nm, exposure time: 10 ms), green (excitation filter: 475/34 nm, emission filter: 536/40 nm, exposure time: 20 ms) and red (excitation filter: 531/40 nm, emission filter: 593/40 nm, […]
(§1) Duplicates were performed for each condition.
Fig. S2 Blue channel recording the Hoechst 33342 localization in the nuclei (left), green channel recording the GFP signal in the mitochondria (middle) and red channel recording the signal from HRO 2 (right) covalently attached to HaloTag protein in the mitochondr ia. Scale […]
3.2.2. HC-CAPA analysis protocol
As in ref. S11, for each cell, the DAPI and GFP channel images were used for the segmentation of the nuclei and whole cell body, respectively. Three successive filters have then been used for the cell selection process: […]

Data set [1] can be described thus: Solubility of streptavidin/peptide complexes in water. The format is physicochemical. The method, then:
However, this interpretation should not be overestimated because the CP50 = 2.5 ± 0.2 μM remained near those of single dithiolane quartets in 19 and 1.

In another data set the test system is HGM spheroids. In words: 3D HC-CAPA, cytosolic delivery in multicellular spheroids. The format is cell-based. Conditions: for Penetration of HGM spheroids (suppression of emission of CAPA probe 2), in words: 20 μM, 6 h, then 2 for 45 min, cross-sectional CSDM images 80 μm from surface; for SP50, half maximal spheroid-penetration concentration: 3D HC-CAPA, HGM spheroids 350–400 μm, complexes 0 to max 20 μM, 2 or 6 h, 37 °C, then HRO 2 5 μM 45 min, average TAMRA intensity over entire spheroid, Hill analysis of DRCs, duplicates. The method, then:
Spheroids of HGM cells with an average size of 350–400 μm were prepared in cell-repellent U-bottom 96-well plates following standard procedures (Fig. 4a).[1–26] In cross-sectional confocal spinning disc microscopy (CSDM) images taken 80 μm from the surface, GFP emission was homogeneously distributed (Fig. 4b). Similarly the homogeneous cross-sectional TAMRA emission upon addition of 2 was consistent with unhindered passive diffusion of the small, cationic CAPA probe across the spheroid (Fig. 4c, m, red circles, 1c). […] Line-scan analysis of the TAMRA intensity along the cross-section in the CSDM image gave an almost linear decrease (Fig. 4m, green squares). […] Comparison of the line-scan analyses for 20 μM 19 after 2 h and 6 h incubation illustrated how transporter 19 penetrates the spheroids with time from the periphery to the center as expected for operational transcytosis (Fig. 4m, l vs. i). […] At c ∼ SP50, thiol-mediated delivery decreases linearly with increasing depth because the limited amount of transporter 19 provided is gradually consumed by kinetically competing direct translocation and irreversible reaction with the HaloTags on the mitochondria of the cells on the way into the spheroids. […]
HGM cells were seeded at 5 × 10^3 cells/mL in FluoroBrite DMEM + 10% FBS on NunclonTM SpheraTM U-bottom 96-well sterile μ-Plates and kept at 37 °C with 5% CO2 for 3 days. After the spheroids were formed, the medium was exchanged to Leibovitz’s (6 × 200 μL/well) using a Biotek MultiFloTM FX plate washer, keeping a final volume of 135 μL/well.
Then, serial dilutions of the corresponding complexes 18-20 in PBS were prepared in a 96-well V-bottom plate and added to the μ-Plate containing the spheroids (15 μL/well, 10x final concentration in PBS) to reach a final volume of 150 μL/well (0 to maximum 20 μM). Cells were incubated for 2 or 6 h at 37 °C with 5% CO2. After this, cells were washed again and HRO 2 was added (15 μL/well, 50 μM in PBS) to reach a final volume of 150 μL/well (5 μM), except for the control wells, where only PBS was added (15 μL/well). After 45 min of incubation at 37 °C with 5% CO2, the plate was washed again. Then, the plate was kept for 1 h at 37 °C with 5% CO2 and was washed again. During imaging, samples were kept at 37 °C with 5% CO2. A z-stack of 19 images/well (10 μm per step) at 10x were recorded, using two channels: green (excitation filter: 475/34 nm, emission filter: 536/40 nm, exposure time: 200 ms) and red (excitation filter: 531/40 nm, emission filter: 593/40 nm, exposure time: 200 ms), […]
as §1
Fig. S4 TL channel (left), Green channel recording the GFP signal in the mitochondria (middle left) and red channel recording the signal from HRO 2 (middle right) covalently attached to HaloTag protein in the mitochondria. Merged images showing colocalization of G FP and HRO 2 signals (right). Images are 2D projections of all planes. Scale bar: 100 μm.
3.3.2 3D HC-CAPA analysis protocol
For each spheroid, the TL and green channel images were used for the segmentation of the object. A gaussian filter was applied to blur the image and allow the creation of the spheroid […]
Fig. S5 Green channel recording the GFP signal in the mitochondria (left), applied Gaussian filter (middle) to generate the spheroid mask in white (right). Images are 2D projections of all planes. Scale bar: 100 μm. […]
3.3.2 3D HC-CAPA results for uptake quantification […]

Where [2] appears, read: streptavidin/peptide complex in water.

Entries after “also recorded” stand apart in the source; their conditions may differ. Read-outs that look alike come from different tables or passages of the source.

Consider UUUUUU [compound 22], for which the “CP50, half maximal cell-penetration concentration” value in the data set on HGM cells was >20 µM. Also, the “Solubility of complex in water, in words” value in data set [1] (setting [2]) is listed as “insoluble in water”.
Regarding “EUEUeU [compound 16, 1 : 3 streptavidin 3/peptide 6 (EUEUeU) complex]”, the “CP50, half maximal cell-penetration concentration” value in the data set with HGM cells came out at 16 ± 2 µM.
As for “EEEUUU [compound 19, 1 : 3 streptavidin 3/peptide 9 (EEEUUU) complex]”, in the data set on HGM cells, the “CP50, half maximal cell-penetration concentration” value was determined as 3.8 ± 0.2 µM and the “Uptake activity in 2D CAPA, in words” value was “preserved activity”. In addition, in the data set with HGM spheroids, the “Penetration of HGM spheroids (suppression of emission of CAPA probe 2), in words” value (from here on “Penetration of HGM spheroids”) is given as “almost complete disappearance of all fluorescence; also recorded: suppressed fluorescence throughout the spheroid” and the “SP50, half maximal spheroid-penetration concentration” value is 5.3 ± 0.9 µM.
With “UUUEEE [compound 20, 1 : 3 streptavidin 3/peptide 10 (UUUEEE) complex]”, in the data set on HGM cells, the “CP50, half maximal cell-penetration concentration” value was > 20 µM and the “Uptake activity in 2D CAPA, in words” value is “inactive”. Moreover, the “SP50, half maximal spheroid-penetration concentration” value with HGM spheroids came to 17 ± 6 µM.
Turning to “EEEEEE [compound 23, streptavidin 3/peptide 13 (EEEEEE) 1 : 2 complex]”, in the data set on HGM cells, the “CP50, half maximal cell-penetration concentration” value was >20 µM and the “Uptake activity in 2D CAPA, in words” value is “inactive”. In addition, the “Solubility of complex in water, in words” value in data set [1] (setting [2]) is “soluble”.
“EEUUUU [compound 21, 1 : 3 streptavidin 3/peptide 11 (EEUUUU) complex]”: in the data set on HGM cells, the “CP50, half maximal cell-penetration concentration” value was 2.5 ± 0.2 µM and the “Uptake activity in 2D CAPA, in words” value is given as “most active of all transporters”.
Turning to “KKKKKK [compound 25, streptavidin 3/peptide 14 (KKKKKK) 1 : 2 complex, isostructural CPP control]”, in the data set with HGM cells, the “CP50, half maximal cell-penetration concentration” value came to 2.8 ± 0.3 µM and the “Uptake activity in 2D CAPA, in words” value is “in the range of the best dithiolane quartets”. Further, the “Penetration of HGM spheroids” value in the data set with HGM spheroids is “failed to penetrate HGM spheroids”.
With EUEUEU [compound 1], the “CP50, half maximal cell-penetration concentration” value in the data set with HGM cells was 3.6 ± 0.3 µM. In addition, the “Penetration of HGM spheroids” value in the data set on HGM spheroids is given as “suppressed fluorescence throughout the spheroid”.
As to “EUUUUU [streptavidin complex of EUUUUU peptide, insoluble, not finalized]”, the “Solubility of complex in water, in words” value in data set [1] is recorded as “insoluble in water”.
